The record followed here is PMC10501992, “How Pol α-primase is targeted to replisomes to prime eukaryotic DNA replication” (Molecular Cell, 2023).

Common to all, as to assay: cryo-EM structure; human replisome: 150 nM CMG on fork DNA (60 nt or 15 nt 5′ flap) with 1.5-fold molar excess of AND-1, TIMELESS-TIPIN, CLASPIN and Pol α-primase; 25 mM HEPES-NaOH pH 7.6, 150 mM NaOAc, 0.5 mM TCEP, 500 μM AMP-PNP, 10 mM Mg(OAc)2, on ice; 10-30% glycerol gradient with glutaraldehyde and BS3 cross-linkers
Holding throughout (details): both partners purified

Assay [1] deals with T1, PRIM2 (human primase accessory subunit) (human, UniProt P49643 1-509).
T1 construct: PRIM2, human; modelled residues 1-5 (N terminus) and 17-252 (NTD); stood in the assay as a subunit of m18; also called PRIM2NTD; PRIM2_(Nterm)
T1 sequence: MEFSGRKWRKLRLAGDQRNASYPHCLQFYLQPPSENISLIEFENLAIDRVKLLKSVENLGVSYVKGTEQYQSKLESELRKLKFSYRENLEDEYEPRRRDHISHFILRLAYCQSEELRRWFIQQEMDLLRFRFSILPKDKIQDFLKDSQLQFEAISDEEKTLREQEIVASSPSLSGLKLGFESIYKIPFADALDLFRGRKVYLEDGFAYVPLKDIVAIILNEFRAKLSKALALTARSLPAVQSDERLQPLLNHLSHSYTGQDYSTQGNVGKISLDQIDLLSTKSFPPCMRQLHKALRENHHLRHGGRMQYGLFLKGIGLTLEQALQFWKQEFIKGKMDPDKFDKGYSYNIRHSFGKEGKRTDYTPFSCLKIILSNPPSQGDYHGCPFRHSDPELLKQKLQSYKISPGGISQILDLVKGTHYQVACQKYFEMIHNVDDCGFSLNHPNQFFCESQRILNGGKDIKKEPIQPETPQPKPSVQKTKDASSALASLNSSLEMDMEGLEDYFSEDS

The target in assay [2] is T2, human CMG (CDC45-MCM-GINS) replicative helicase (human, UniProt O75419 1-566; P49736 1-904; P25205 1-808; P33991 1-863; P33992 1-734; Q14566 …).
T2 construct: CDC45, human; MCM2, human; MCM3, human; MCM4, human; MCM5, human; MCM6, human; MCM7, human; PSF1, subunit of GINS, human; PSF2, subunit of GINS, human; PSF3, subunit of GINS, human; SLD5, subunit of GINS, human; the subunits are named in the methods for the MCM3-4A form, which was made as the wild type; copies: + + + + + + + + + +

The target of assay [3] is T3, POLA1 (human Pol α catalytic subunit) (human, UniProt P09884 1-1462).
T3 construct: POLA1, human; modelled residues 1279-1445 and 1448-1458 (CTD); stood in the assay as a subunit of m18; also called POLA1CTD; POLA1_(exo-cat)
T3 sequence: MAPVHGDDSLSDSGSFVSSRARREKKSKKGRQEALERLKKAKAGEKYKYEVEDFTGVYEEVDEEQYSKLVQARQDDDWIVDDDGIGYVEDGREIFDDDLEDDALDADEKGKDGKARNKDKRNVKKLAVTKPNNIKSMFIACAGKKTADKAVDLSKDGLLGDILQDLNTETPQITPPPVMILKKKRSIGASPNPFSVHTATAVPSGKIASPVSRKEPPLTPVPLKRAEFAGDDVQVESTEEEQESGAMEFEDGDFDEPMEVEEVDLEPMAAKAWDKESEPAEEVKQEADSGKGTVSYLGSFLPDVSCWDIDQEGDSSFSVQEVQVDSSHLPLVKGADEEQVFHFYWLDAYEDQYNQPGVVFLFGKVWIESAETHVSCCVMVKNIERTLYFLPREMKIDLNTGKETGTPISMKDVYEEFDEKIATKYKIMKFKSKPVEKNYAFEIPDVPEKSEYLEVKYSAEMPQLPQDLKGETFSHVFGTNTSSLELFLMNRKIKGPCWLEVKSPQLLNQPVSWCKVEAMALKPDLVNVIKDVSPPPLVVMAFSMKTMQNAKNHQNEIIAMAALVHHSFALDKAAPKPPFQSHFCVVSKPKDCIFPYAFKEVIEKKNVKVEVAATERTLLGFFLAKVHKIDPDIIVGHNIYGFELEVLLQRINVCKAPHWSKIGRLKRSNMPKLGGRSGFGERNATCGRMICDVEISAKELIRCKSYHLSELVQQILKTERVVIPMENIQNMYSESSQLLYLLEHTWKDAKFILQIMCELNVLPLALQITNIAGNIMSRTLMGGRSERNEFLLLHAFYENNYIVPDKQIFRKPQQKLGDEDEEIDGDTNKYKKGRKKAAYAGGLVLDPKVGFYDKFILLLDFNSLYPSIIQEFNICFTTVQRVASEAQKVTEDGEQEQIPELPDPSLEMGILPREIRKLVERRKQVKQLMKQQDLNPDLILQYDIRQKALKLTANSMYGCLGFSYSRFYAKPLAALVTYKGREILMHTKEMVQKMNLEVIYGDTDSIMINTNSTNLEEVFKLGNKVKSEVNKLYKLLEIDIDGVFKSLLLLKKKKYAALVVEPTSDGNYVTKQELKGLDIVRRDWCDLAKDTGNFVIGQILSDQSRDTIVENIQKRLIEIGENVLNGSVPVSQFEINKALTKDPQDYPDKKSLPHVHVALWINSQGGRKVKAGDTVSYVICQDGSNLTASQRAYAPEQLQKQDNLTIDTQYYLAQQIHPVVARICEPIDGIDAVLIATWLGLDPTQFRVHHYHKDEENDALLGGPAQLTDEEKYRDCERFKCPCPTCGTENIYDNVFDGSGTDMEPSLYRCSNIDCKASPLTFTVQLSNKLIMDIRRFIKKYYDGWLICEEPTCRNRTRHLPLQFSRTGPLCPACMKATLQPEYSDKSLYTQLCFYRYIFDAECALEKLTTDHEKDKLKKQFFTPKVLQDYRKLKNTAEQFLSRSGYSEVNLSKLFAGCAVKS

B1: PRIM1 (human primase catalytic subunit) (natural protein)
chain: METFDPTELPELLKLYYRRLFPYSQYYRWLNYGGVIKNYFQHREFSFTLKDDIYIRYQSFNNQSDLEKEMQKMNPYKIDIGAVYSHRPNQHNTVKLGAFQAQEKELVFDIDMTDYDDVRRCCSSADICPKCWTLMTMAIRIIDRALKEDFGFKHRLWVYSGRRGVHCWVCDESVRKLSSAVRSGIVEYLSLVKGGQDVKKKVHLSEKIHPFIRKSINIIKKYFEEYALVNQDILENKESWDKILALVPETIHDELQQSFQKSHNSLQRWEHLKKVASRYQNNIKNDKYGPWLEWEIMLQYCFPRLDINVSKGINHLLKSPFSVHPKTGRISVPIDLQKVDQFDPFTVPTISFICRELDAISTNEEEKEENEAESDVKHRTRDYKKTSLAPYVKVFEHFLENLDKSRKGELLKKSDLQKDF
notes: PRIM1, human; modelled residues 9-349 and 386-408; stood in the assay as a subunit of m18
In the case of B1, the binding result in assay [1] was “binds”.

B2: TIMELESS-TIPIN (human) (complex)
chain 1: MDLHMMNCELLATCSALGYLEGDTYHKEPDCLESVKDLIRYLRHEDETRDVRQQLGAAQILQSDLLPILTQHHQDKPLFDAVIRLMVNLTQPALLCFGNLPKEPSFRHHFLQVLTYLQAYKEAFASEKAFGVLSETLYELLQLGWEERQEEDNLLIERILLLVRNILHVPADLDQEKKIDDDASAHDQLLWAIHLSGLDDLLLFLASSSAEEQWSLHVLEIVSLMFRDQNPEQLAGVGQGRLAQERSADFAELEVLRQREMAEKKTRALQRGNRHSRFGGSYIVQGLKSIGERDLIFHKGLHNLRNYSSDLGKQPKKVPKRRQAARELSIQRRSALNVRLFLRDFCSEFLENCYNRLMGSVKDHLLREKAQQHDETYYMWALAFFMAFNRAASFRPGLVSETLSVRTFHFIEQNLTNYYEMMLTDRKEAASWARRMHLALKAYQELLATVNEMDISPDEAVRESSRIIKNNIFYVMEYRELFLALFRKFDERCQPRSFLRDLVETTHLFLKMLERFCRSRGNLVVQNKQKKRRKKKKKVLDQAIVSGNVPSSPEEVEAVWPALAEQLQCCAQNSELSMDSVVPFDAASEVPVEEQRAEAMVRIQDCLLAGQAPQALTLLRSAREVWPEGDVFGSQDISPEEEIQLLKQILSAPLPRQQGPEERGAEEEEEEEEEEEEELQVVQVSEKEFNFLDYLKRFACSTVVRAYVLLLRSYQQNSAHTNHCIVKMLHRLAHDLKMEALLFQLSVFCLFNRLLSDPAAGAYKELVTFAKYILGKFFALAAVNQKAFVELLFWKNTAVVREMTEGYGSLDDRSSSRRAPTWSPEEEAHLRELYLANKDVEGQDVVEAILAHLNTVPRTRKQIIHHLVQMGLADSVKDFQRKGTHIVLWTGDQELELQRLFEEFRDSDDVLGHIMKNITAKRSRARIVDKLLALGLVAERRELYKKRQKKLASSILPNGAESLKDFCQEDLEEEENLPEEDSEEEEEGGSEAEQVQGSLVLSNENLGQSLHQEGFSIPLLWLQNCLIRAADDREEDGCSQAVPLVPLTEENEEAMENEQFQQLLRKLGVRPPASGQETFWRIPAKLSPTQLRRAAASLSQPEEEQKLQPELQPKVPGEQGSDEEHCKEHRAQALRALLLAHKKKAGLASPEEEDAVGKEPLKAAPKKRQLLDSDEEQEEDEGRNRAPELGAPGIQKKKRYQIEDDEDD
chain 2: MLEPQENGVIDLPDYEHVEDETFPPFPPPASPERQDGEGTEPDEESGNGAPVRVPPKRTVKRNIPKLDAQRLISERGLPALRHVFDKAKFKGKGHEAEDLKMLIRHMEHWAHRLFPKLQFEDFIDRVEYLGSKKEVQTCLKRIRLDLPILHEDFVSNNDEVAENNEHDVTSTELDPFLTNLSESEMFASELSRSLTEEQQQRIERNKQLALERRQAKLLSNSQTLGNDMLMNTPRAHTVEEVNTDEDQKEESNGLNEDILDNPCNDAIANTLNEEETLLDQSFKNVQQQLDATSRNITEAR
notes: TIPIN, human; source: purified (Strep-Tactin XT resin, TEV protease, HiTrap Q HP, Superdex 200)
Regarding B2, the binding result in assay [2] was “binds”.

B3: POLA2 (human Pol α accessory subunit) (natural protein)
chain: MSASAQQLAEELQIFGLDCEEALIEKLVELCVQYGQNEEGMVGELIAFCTSTHKVGLTSEILNSFEHEFLSKRLSKARHSTCKDSGHAGARDIVSIQELIEVEEEEEILLNSYTTPSKGSQKRAISTPETPLTKRSVSTRSPHQLLSPSSFSPSATPSQKYNSRSNRGEVVTSFGLAQGVSWSGRGGAGNISLKVLGCPEALTGSYKSMFQKLPDIREVLTCKIEELGSELKEHYKIEAFTPLLAPAQEPVTLLGQIGCDSNGKLNNKSVILEGDREHSSGAQIPVDLSELKEYSLFPGQVVIMEGINTTGRKLVATKLYEGVPLPFYQPTEEDADFEQSMVLVACGPYTTSDSITYDPLLDLIAVINHDRPDVCILFGPFLDAKHEQVENCLLTSPFEDIFKQCLRTIIEGTRSSGSHLVFVPSLRDVHHEPVYPQPPFSYSDLSREDKKQVQFVSEPCSLSINGVIFGLTSTDLLFHLGAEEISSSSGTSDRFSRILKHILTQRSYYPLYPPQEDMAIDYESFYVYAQLPVTPDVLIIPSELRYFVKDVLGCVCVNPGRLTKGQVGGTFARLYLRRPAADGAERQSPCIAVQVVRI
notes: POLA2, human; stood in the assay as a subunit of m18
With B3, the binding result in assay [3] is reported as “binds”.
